“And” between values parts separate entries of the source, which are not always exact repeats. Identical values can stand only once.

Common to all, as to experiment: cell-based or functional assay
The target of experiment [1] is plasmin.
For experiment [2], the target named is trypsin.
For experiment [3], the target named is tissue kallikrein.
Experiment [4] has as its target recombinant human tryptase (Promega) (human) (UniProt Q15661). The following applies: scale: % of the activity in the absence of inhibitor.
UniProt Q15661, sequence (Q15661 31-275): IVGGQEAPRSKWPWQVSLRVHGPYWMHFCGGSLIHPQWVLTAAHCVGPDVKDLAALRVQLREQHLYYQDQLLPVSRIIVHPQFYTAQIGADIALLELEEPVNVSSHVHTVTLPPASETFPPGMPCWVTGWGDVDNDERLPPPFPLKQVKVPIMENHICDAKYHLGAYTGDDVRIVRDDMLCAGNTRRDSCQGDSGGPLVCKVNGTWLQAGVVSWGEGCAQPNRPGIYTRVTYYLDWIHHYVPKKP

Turning to “soybean trypsin inhibitor (from UniProt P01070 25-205)”, the concentration corresponding with 50% plasmin inhibition (peptide release from resorufin-labelled casein) in experiment [1] came out at 0.23 µM. In addition, the concentration for 50% trypsin inhibition (peptide release from resorufin-labelled casein) in experiment [2] stood at 0.026 µM.

Consider “Recombinant tick-derived protease inhibitor protein (rTdPI), histidine-tagged”, for which the tissue kallikrein activity (n-benzoyl-Pro-Phe-Arg-pNA, absorbance at 410 nm); percent inhibition at 7.5 µM rTdPI (% inhibition at 7.5 µM) in experiment [3] was determined as 50. Besides, the concentration corresponding with 50% plasmin inhibition (peptide release from resorufin-labelled casein); one of two values from two assumed molecular masses (12 kDa or 13.5 kDa) in experiment [1] was 0.32 µM and 0.43 µM. Moreover, in experiment [4], the residual catalytic activity of tryptase (n-α-benzoyl-DL-Arg-p-nitroanilide, absorbance at 405 nm) after preincubation with rTdPI came to 33. Also, in experiment [2], the concentration for 50% trypsin inhibition (peptide release from resorufin-labelled casein); one of two values from two assumed molecular masses (12 kDa or 13.5 kDa) was 0.044 µM and 0.033 µM.

The values above are taken from patent US6987168.
